Results: US10597433B2, “Peptides and combination of peptides for use in immunotherapy against small cell lung cancer and other cancers” (Immatics Biotechnologies GmbH, priority 2015, dated 2020)

The substances below were run against HLA-A*02:01 (Homo sapiens, UniProt P04439, D140Y/D185E/D98H/E176V/E277Q/G131W/G231S/I119V/I121R/I166T/I218V/L300P/L318F/N151K/N90K/P208A/P217A/Q86G/Q94H/R138H/R169H/T345S) (assay: MHC binding assay: UV-ligand exchange with ELISA detection of β2m of stabilized MHC complexes). Conditions: binding to HLA-A*02:01.
Description: Candidate peptides for T cell based therapies according to the present invention were further tested for their MHC binding capacity (affinity). The individual peptide-MHC complexes were produced by UV-ligand exchange, where a UV-sensitive peptide is cleaved upon UV-irradiation, and exchanged with the peptide of interest as analyzed. Only peptide candidates that can effectively bind and stabilize the peptide-receptive MHC molecules prevent dissociation of the MHC complexes. To determine the yield of the exchange reaction, an ELISA was performed based on the detection of the light chain (β2m) of stabilized MHC complexes. The assay was performed as generally described in Rodenko et al. (Rodenko et al., 2006).
96 well MAXISorp plates (NUNC) were coated over night with 2 μg/ml streptavidin in PBS at room temperature, washed 4× and blocked for 1 h at 37° C. in 2% BSA containing blocking buffer. Refolded HLA-A*02:01/MLA-001 monomers served as standards, covering the range of 15-500 ng/ml. Peptide-MHC monomers of the UV-exchange reaction were diluted 100 fold in blocking buffer. Samples were incubated for 1 h at 37° C., washed four times, incubated with 2 μg/ml HRP conjugated anti-β2m for 1 h at 37° C., washed again and detected with TMB solution that is stopped with […]. Absorption was measured at 450 nm. Candidate peptides that show a high exchange yield (preferably higher than 50%, most preferred higher than 75%) are generally preferred for a generation and production of antibodies or fragments thereof, and/or T cell receptors or fragments thereof, as they show sufficient avidity to the MHC molecules and prevent dissociation of the MHC complexes.

| Substance | Peptide exchange (MHC class I binding score, peptide exchange yield) |
| --- | --- |
| 24 (FLMEEVHMI; listed as Homo sapiens) [compound 24] | +++ (≥50 = +++) |
| 12 (MLFEGLDLVSA; listed as Homo sapiens) [compound 12] | +++ (≥50 = +++) |
| 123 (KLDKNPNQV; listed as Homo sapiens) [compound 123] | +++ (≥50 = +++) |
| 77 (AIIDGKIFCV; listed as Homo sapiens) [compound 77] | +++ (≥50 = +++) |
| 37 (SLFYNELHYV; listed as Homo sapiens) [compound 37] | +++ (≥50 = +++) |
| 68 (FLFPVYPLI; listed as Homo sapiens) [compound 68] | +++ (≥50 = +++) |
| 87 (LLQNNLPAV; listed as Homo sapiens) [compound 87] | ++++ (≥75% = ++++) |
| 16 (VILDLPLVI; listed as Homo sapiens) [compound 16] | +++ (≥50 = +++) |
| 126 (AAASLIRLV; listed as Homo sapiens) [compound 126] | + (≥10% = +) |
| 92 (YLQDYTDRV; listed as Homo sapiens) [compound 92] | +++ (≥50 = +++) |
| 53 (LLSEEHITL; listed as Homo sapiens) [compound 53] | ++++ (≥75% = ++++) |
| 88 (TLHRETFYL; listed as Homo sapiens) [compound 88] | ++++ (≥75% = ++++) |
| 25 (GLSETILAV; listed as Homo sapiens) [compound 25] | ++++ (≥75% = ++++) |
| 86 (KVIDYVPGI; listed as Homo sapiens) [compound 86] | +++ (≥50 = +++) |
| 115 (ALLPSDCLQEA; listed as Homo sapiens) [compound 115] | +++ (≥50 = +++) |
| 13 (FLTAFLVQI; listed as Homo sapiens) [compound 13] | +++ (≥50 = +++) |
| 15 (SLLTAISEV; listed as Homo sapiens) [compound 15] | +++ (≥50 = +++) |
| 47 (GLLEALLKI; listed as Homo sapiens) [compound 47] | +++ (≥50 = +++) |
| 122 (SMMPDELLTSL; listed as Homo sapiens) [compound 122] | +++ (≥50 = +++) |
| 3 (VLAEIDPKQLV; listed as Homo sapiens) [compound 3] | +++ (≥50 = +++) |
| 59 (VLLSGLTEV; listed as Homo sapiens) [compound 59] | ++++ (≥75% = ++++) |
| 73 (SLSSYTPDV; listed as Homo sapiens) [compound 73] | +++ (≥50 = +++) |
| 14 (ILIETKLVL; listed as Homo sapiens) [compound 14] | +++ (≥50 = +++) |
| 32 (ALTSLELEL; listed as Homo sapiens) [compound 32] | +++ (≥50 = +++) |
| 58 (VLLNINGIDL; listed as Homo sapiens) [compound 58] | ++++ (≥75% = ++++) |
| 41 (KAYQELLATV; listed as Homo sapiens) [compound 41] | +++ (≥50 = +++) |
| 121 (YMLEHVITL; listed as Homo sapiens) [compound 121] | +++ (≥50 = +++) |
| 60 (VVSGATETL; listed as Homo sapiens) [compound 60] | ++++ (≥75% = ++++) |
